From paper PMC4168798 (ACS Chemical Biology, 2014) come the findings set out here.

The chains are these.
T1: Bcl-w (c-myc-tagged, without the C-terminal trans-membrane region) (human)
T1 chain: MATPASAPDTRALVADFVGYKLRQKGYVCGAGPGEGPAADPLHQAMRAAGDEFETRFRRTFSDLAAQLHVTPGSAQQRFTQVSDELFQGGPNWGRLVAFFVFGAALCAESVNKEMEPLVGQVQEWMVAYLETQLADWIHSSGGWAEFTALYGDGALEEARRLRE

T2: Bfl-1 (c-myc-tagged, without the C-terminal trans-membrane region) (human)
T2 sequence (Q16548 whole entry, looked up): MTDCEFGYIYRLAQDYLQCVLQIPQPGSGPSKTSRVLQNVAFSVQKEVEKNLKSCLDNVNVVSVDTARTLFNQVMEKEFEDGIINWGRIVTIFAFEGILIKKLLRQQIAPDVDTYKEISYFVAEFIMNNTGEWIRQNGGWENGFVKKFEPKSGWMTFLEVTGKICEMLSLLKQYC

B1: Kaposi sarcoma herpesvirus Bcl-2 (domain or fragment)
chain: MDEDVLPGEVLAIEGIFMACGLNEPEYLYHPLLSPIKLYITGLMRDKESLFEAMLANVRFHSTTGINQLGLSMLQVSGDGNMNWGRALAILTFGSFVAQKLSNEPHLRDFALAVLPVYAYEAIGPQWFRARGGWRGLKAYCTQVLTRRRGRR
B2: MS2, N-terminal fluorescein (designed binder)
chain: {5/6‑fluorescein amidite}-RPEIWLTQSLQRLGDEINAYYAR-NH2
B3: MS3, N-terminal fluorescein (designed binder)
chain: {5/6‑fluorescein amidite}-RPEIWLTQHLQRLGDEINAYYAR-NH2
B4: MS1, N-terminal fluorescein (designed binder)
chain: {5/6‑fluorescein amidite}-RPEIWMTQGLRRLGDEINAYYAR-NH2
B5: A12, N-terminal fluorescein (designed binder)
chain: {5/6‑fluorescein amidite}-RPEIWMGQGLRRLGDEINAYYAR-NH2
B6: B3, N-terminal fluorescein (designed binder)
chain: {5/6‑fluorescein amidite}-RPEIWLGQSLQRLGDEINAYYAR-NH2

Holding throughout (assay): fluorescence polarisation
Assay [1] has as its target Bim_A2eT_I3dL, N-terminal fluorescein (N-terminal 5/6-fluorescein amidite; C-terminal amidation).
For assay [2], the target named is B1.
Assay [3] addresses T1, Bcl-w (c-myc-tagged, without the …).
Assay [4] has as its target T2, Bfl-1 (c-myc-tagged, without the …).
Assay [5] deals with Bcl-2 (c-myc-tagged, without the C-terminal trans-membrane region) (human).
The target in assay [6] is Mcl-1 (c-myc-tagged, without the N-terminal domain and the C-terminal trans-membrane region) (human).
Mcl-1 (c-myc-tagged, without the N-terminal domain and the C-terminal trans-membrane region) (human), sequence (Q07820 whole entry, the tested form may be a part): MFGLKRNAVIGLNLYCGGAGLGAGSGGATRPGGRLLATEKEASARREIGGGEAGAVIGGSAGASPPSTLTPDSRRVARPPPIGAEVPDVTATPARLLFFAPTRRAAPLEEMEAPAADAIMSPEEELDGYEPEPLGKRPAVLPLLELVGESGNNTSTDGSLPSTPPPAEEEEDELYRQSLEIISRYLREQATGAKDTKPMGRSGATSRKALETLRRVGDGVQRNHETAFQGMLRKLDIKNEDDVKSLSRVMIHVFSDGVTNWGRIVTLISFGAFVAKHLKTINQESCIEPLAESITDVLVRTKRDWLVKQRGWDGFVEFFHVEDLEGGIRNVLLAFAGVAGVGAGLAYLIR
For assay [7], the target named is Bcl-xL (c-myc-tagged, without the C-terminal trans-membrane region) (human).
Bcl-xL (c-myc-tagged, without the C-terminal trans-membrane region) (human), sequence (Q07817 whole entry): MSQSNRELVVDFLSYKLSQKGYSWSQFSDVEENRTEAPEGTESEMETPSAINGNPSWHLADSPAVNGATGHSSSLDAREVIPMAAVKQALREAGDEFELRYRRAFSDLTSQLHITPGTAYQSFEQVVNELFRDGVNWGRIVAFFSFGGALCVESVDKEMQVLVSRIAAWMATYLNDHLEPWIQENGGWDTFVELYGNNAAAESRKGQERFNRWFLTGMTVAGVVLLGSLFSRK

In the case of B1, the Kd in assay [1] amounted to 1 nM.

B2 showed a Kd in assay [2] of less than 1 nM.

For B3, the Kd is 340 nM in assay [3], 790 nM in assay [4] and more than 3000 nM in assay [5].

The molecule B4 yielded a Kd in assay [2] of 2.9 nM.

Take B5: the Kd in assay [3] came out at 210 nM; in assay [2] it was 4 nM; in assay [6], 2.4 nM; in assay [4], 22 nM; in assay [7] it was 9.8 nM; in assay [5], 42 nM.

Regarding B6, the Kd in assay [3] was 16 nM; in assay [2], 1.43 nM; in assay [6] it was less than 1 nM; in assay [4] it was 26 nM; in assay [7] it was 4.2 nM; in assay [5] it was 35 nM.

Usually Kd stands for a measure of binding affinity in units of concentration.
